This assay addresses HIV-1 Rev (HIV-1, UniProt P04618).

Sequence of HIV-1 Rev (P04618 whole entry): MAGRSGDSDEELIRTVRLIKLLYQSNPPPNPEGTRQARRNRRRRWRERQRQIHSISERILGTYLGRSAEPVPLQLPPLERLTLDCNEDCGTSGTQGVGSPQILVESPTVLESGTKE

B1: anti-Rev Fab (chimeric rabbit/human) (Fab, V domains shown)
VH: QEQLVESGGRLVTPGTALTLTCKVSGFSLSGFWLNWVRQAPGKGLEWVGAIYRGSGSEWYASWAKGRFTISDTSTTVTLKLTSPTTEDTATYFCAADTTDNGYFTIWGPGTLVTVSS
VL: ELVMTQTPSSVSEPVGGTVTIKCQASQSISSWLSWYQQKPGQPPKLLIYDASNLASGVPSRFMGSGSGTEYTLTISGVQREDAATYYCLGGYPAASYRTAFGGGTELEII
In the case of B1, the Kd was less than 100 pM and the “stoichiometry N” value came to 1.

The values above are taken from PMC4175418 (Methods in molecular biology (Clifton, N.J.), 2014).
